Assay results: PMC5588548, “Suramin Inhibits Osteoarthritic Cartilage Degradation by Increasing Extracellular Levels of Chondroprotective Tissue Inhibitor of Metalloproteinases 3” (Molecular Pharmacology, 2017)

Tested on: HTB94 chondrosarcoma cells
Assay type: cell-based
Protocol: Cells (HTB94 chondrosarcoma cells, primary porcine chondrocytes, or human osteoarthritic chondrocytes) were plated overnight (6 × 10^5 cells per well of a 12-well plate) in DMEM containing 10% FCS and washed three times in serum-free DMEM.
To evaluate endocytosis of exogenously added TIMP-3, cells were incubated with recombinant TIMP-3 (1 nM in 1.5 ml DMEM with 0.1% FCS) for 0–24 hours. Conditioned media were concentrated by precipitation with trichloroacetic acid [5% (v/v), 4°C, 18 hours]. After centrifugation (13,000 rpm, 4°C, 10 minutes), protein-containing pellets were resuspended in SDS sample buffer (30 µl), electrophoresed (7 µl) on a 10% polyacrylamide gel, and immunoblotted onto polyvinylidene fluoride. After blocking in 5% (m/v) BSA in Tris-buffered saline, TIMP-3 levels were analyzed using an M2 anti-FLAG antibody (Sigma-Aldrich), an alkaline phosphatase–conjugated anti-mouse secondary antibody (Promega, Southampton, UK), and a Western Blue stabilized substrate for alkaline phosphatase (Promega). Immunoblots were analyzed by densitometry using Phoretix 1D densitometry software (TotalLab, Newcastle-upon-Tyne, UK), and TIMP-3 remaining in the medium (mean ± S.D., n = 3) was calculated relative to pixel volume at a t of 0 hours (defined as 100%).

B1: TIMP-3: C-terminally FLAG-tagged human TIMP-3 expressed in human embryonic kidney 293 cells; endogenous metalloproteinase inhibitor (protein, UniProt P35625 24-211, looked up)
Metalloproteinase inhibitor 3: CTCSPSHPQDAFCNSDIVIRAKVVGKKLVKEGPFGTLVYTIKQMKMYRGFTKMPHVQYIHTEASESLCGLKLEVNKYQYLLTGRVYDGKMYTGLCNFVERWDQLTLSQRKGLNYRYHLGCNCKIKSCYYLPCFVTSKNECLWTDMLSNFGYPGYQSKHYACIRQKGGYCSWYRGWAPPDKSIINATDP
modifications: C-terminal FLAG tag
half-life of TIMP-3 uptake from the medium: 4.0 ± 1.3 h
